T1: hTEM1-SpyC (human TEM1 extracellular domain fused to SpyCatcher) (UniProt Q9HCU0 18-687, covalently bound to biotinylated SpyTag peptide (bSpyT))
T1 chain: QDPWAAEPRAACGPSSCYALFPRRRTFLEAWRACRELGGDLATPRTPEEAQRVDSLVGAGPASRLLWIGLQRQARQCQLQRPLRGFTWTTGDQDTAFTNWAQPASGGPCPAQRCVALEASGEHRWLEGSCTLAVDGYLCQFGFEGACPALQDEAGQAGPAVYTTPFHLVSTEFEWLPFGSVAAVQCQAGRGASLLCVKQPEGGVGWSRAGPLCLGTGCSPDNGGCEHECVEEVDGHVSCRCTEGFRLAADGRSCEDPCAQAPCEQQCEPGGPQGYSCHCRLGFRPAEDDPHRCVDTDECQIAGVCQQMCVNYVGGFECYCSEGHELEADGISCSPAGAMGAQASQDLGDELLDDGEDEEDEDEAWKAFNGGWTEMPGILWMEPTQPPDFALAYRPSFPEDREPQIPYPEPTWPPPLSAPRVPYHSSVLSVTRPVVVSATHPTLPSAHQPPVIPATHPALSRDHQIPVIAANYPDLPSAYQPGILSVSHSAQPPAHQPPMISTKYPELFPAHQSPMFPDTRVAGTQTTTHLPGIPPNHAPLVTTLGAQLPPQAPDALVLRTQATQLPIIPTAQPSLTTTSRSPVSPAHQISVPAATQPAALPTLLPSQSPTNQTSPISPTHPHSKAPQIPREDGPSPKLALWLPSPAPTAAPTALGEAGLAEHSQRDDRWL


Legend:
1C1 BiTE = test: SPR; BiTE analyte, hTEM1-SpyC immobilized
[1] = target: T1, hTEM1-SpyC (human TEM1 extracellular …); test: SPR; BiTE analyte, hTEM1-SpyC immobilized

| Kd (1C1 BiTE) | Kd [1] | Binder |
| --- | --- | --- |
| ~68 nM |  | hTEM1-SpyC (other, covalently bound to biotinylated SpyTag peptide (bSpyT)) QDPWAAEPRAACGPSSCYALFPRRRTFLEAWRACRELGGDLATPRTPEEAQRVDSLVGAGPASRLLWIGLQRQARQCQLQRPLRGFTWTTGDQDTAFTNWAQPASGGPCPAQRCVALEASGEHRWLEGSCTLAVDGYLCQFGFEGACPALQDEAGQAGPAVYTTPFHLVSTEFEWLPFGSVAAVQCQAGRGASLLCVKQPEGGVGWSRAGPLCLGTGCSPDNGGCEHECVEEVDGHVSCRCTEGFRLAADGRSCEDPCAQAPCEQQCEPGGPQGYSCHCRLGFRPAEDDPHRCVDTDECQIAGVCQQMCVNYVGGFECYCSEGHELEADGISCSPAGAMGAQASQDLGDELLDDGEDEEDEDEAWKAFNGGWTEMPGILWMEPTQPPDFALAYRPSFPEDREPQIPYPEPTWPPPLSAPRVPYHSSVLSVTRPVVVSATHPTLPSAHQPPVIPATHPALSRDHQIPVIAANYPDLPSAYQPGILSVSHSAQPPAHQPPMISTKYPELFPAHQSPMFPDTRVAGTQTTTHLPGIPPNHAPLVTTLGAQLPPQAPDALVLRTQATQLPIIPTAQPSLTTTSRSPVSPAHQISVPAATQPAALPTLLPSQSPTNQTSPISPTHPHSKAPQIPREDGPSPKLALWLPSPAPTAAPTALGEAGLAEHSQRDDRWL |
|  | ~1 nM | 1C1mut BiTE (1C1mut scFv fused to an scFv derived from anti-CD3 clone UCHT1) (bispecific antibody, V domains shown) VH: QVQLVQSGAEVKKPGSSVKVSCKASGGTFSSYAISWVRQAPGQGLEWMGGIIPIFGTANYAQKFQGRVTITADKSTSTAYMELSSLRSEDTAVYYCASLISYYGDPTGFDYWGQGTLVTVSS VL: not shown |

Source: patent US20220227872A1 (published 2022)
